Tests used:
Assay in all cases: rNET
… analog, Residue 5 = G = molecular target: T1, … analog, Residue 5 = G
T1 peptide: DAEFGHDSGY
Procedure: (§1) The rNET epitope map assay provides information about the contribution of individual residues within the epitope to the overall binding activity of the antibody. rNET analysis uses synthesized systematic single substituted peptide analogs. Binding of an antibody being tested is determined against native peptide (native antigen) and against 19 alternative “single substituted” peptides, each peptide being substituted at a first position with one of 19 non-native amino acids for that position. A profile is generated reflecting the effect of substitution at that position with the various non-native residues. Profiles are likewise generated at successive positions along the antigenic peptide. The combined profile, or epitope map, (reflecting substitution at each position with all 19 non-native residues) can then be compared to a map similarly generated for a second antibody.
(§2) Antibodies were tested for binding against the native Aβ peptide [sequence] […] Residues 1-8 were systematically substituted with each of the 19 non-native residues for that position.

… analog, Residue 7 = E = molecular target: T2, … analog, Residue 7 = E
T2 peptide: DAEFRHESGY
Procedure: as §1, §2

… analog, Residue 8 = C = molecular target: T3, … analog, Residue 8 = C
T3 peptide: DAEFRHDCGY
Procedure: as §1, §2

… analog, Residue 8 = D = molecular target: T4, … analog, Residue 8 = D
T4 peptide: DAEFRHDDGY
Procedure: as §1, §2

… analog, Residue 8 = E = molecular target: T5, … analog, Residue 8 = E
T5 peptide: DAEFRHDEGY
Procedure: as §1, §2

… analog, Residue 8 = F = molecular target: T6, … analog, Residue 8 = F
T6 peptide: DAEFRHDFGY
Procedure: as §1, §2

… analog, Residue 8 = G = molecular target: T7, … analog, Residue 8 = G
T7 peptide: DAEFRHDGGY
Procedure: as §1, §2

… analog, Residue 8 = H = molecular target: T8, … analog, Residue 8 = H
T8 peptide: DAEFRHDHGY
Procedure: as §1, §2

… analog, Residue 8 = I = molecular target: T9, … analog, Residue 8 = I
T9 peptide: DAEFRHDIGY
Procedure: as §1, §2

… analog, Residue 8 = L = molecular target: T10, … analog, Residue 8 = L
T10 peptide: DAEFRHDLGY
Procedure: as §1, §2

… analog, Residue 8 = M = molecular target: T11, … analog, Residue 8 = M
T11 peptide: DAEFRHDMGY
Procedure: as §1, §2

… analog, Residue 8 = P = molecular target: T12, … analog, Residue 8 = P
T12 peptide: DAEFRHDPGY
Procedure: as §1, §2

… analog, Residue 8 = Q = molecular target: T13, … analog, Residue 8 = Q
T13 peptide: DAEFRHDQGY
Procedure: as §1, §2

… analog, Residue 8 = R = molecular target: T14, … analog, Residue 8 = R
T14 peptide: DAEFRHDRGY
Procedure: as §1, §2

… analog, Residue 8 = T = molecular target: T15, … analog, Residue 8 = T
T15 peptide: DAEFRHDTGY
Procedure: as §1, §2

… analog, Residue 8 = V = molecular target: T16, … analog, Residue 8 = V
T16 peptide: DAEFRHDVGY
Procedure: as §1, §2

… analog, Residue 8 = W = molecular target: T17, … analog, Residue 8 = W
T17 peptide: DAEFRHDWGY
Procedure: as §1, §2

… analog, Residue 8 = Y = molecular target: T18, … analog, Residue 8 = Y
T18 peptide: DAEFRHDYGY
Procedure: as §1, §2

… analog, Residue 1 = A = molecular target: T19, … analog, Residue 1 = A
T19 peptide: AAEFRHDSGY
Procedure: as §1, §2

… analog, Residue 1 = C = molecular target: T20, … analog, Residue 1 = C
T20 peptide: CAEFRHDSGY
Procedure: as §1, §2

… analog, Residue 1 = E = molecular target: T21, … analog, Residue 1 = E
T21 peptide: EAEFRHDSGY
Procedure: as §1, §2

… analog, Residue 1 = F = molecular target: T22, … analog, Residue 1 = F
T22 peptide: FAEFRHDSGY
Procedure: as §1, §2

… analog, Residue 1 = G = molecular target: T23, … analog, Residue 1 = G
T23 peptide: GAEFRHDSGY
Procedure: as §1, §2

… analog, Residue 1 = I = molecular target: T24, … analog, Residue 1 = I
T24 peptide: IAEFRHDSGY
Procedure: as §1, §2

… analog, Residue 1 = K = molecular target: T25, … analog, Residue 1 = K
T25 peptide: KAEFRHDSGY
Procedure: as §1, §2

… analog, Residue 1 = L = molecular target: T26, … analog, Residue 1 = L
T26 peptide: LAEFRHDSGY
Procedure: as §1, §2

… analog, Residue 1 = M = molecular target: T27, … analog, Residue 1 = M
T27 peptide: MAEFRHDSGY
Procedure: as §1, §2

… analog, Residue 1 = N = molecular target: T28, … analog, Residue 1 = N
T28 peptide: NAEFRHDSGY
Procedure: as §1, §2

… analog, Residue 1 = P = molecular target: T29, … analog, Residue 1 = P
T29 peptide: PAEFRHDSGY
Procedure: as §1, §2

… analog, Residue 1 = Q = molecular target: T30, … analog, Residue 1 = Q
T30 peptide: QAEFRHDSGY
Procedure: as §1, §2

… analog, Residue 1 = S = molecular target: T31, … analog, Residue 1 = S
T31 peptide: SAEFRHDSGY
Procedure: as §1, §2

… analog, Residue 1 = T = molecular target: T32, … analog, Residue 1 = T
T32 peptide: TAEFRHDSGY
Procedure: as §1, §2

… analog, Residue 1 = W = molecular target: T33, … analog, Residue 1 = W
T33 peptide: WAEFRHDSGY
Procedure: as §1, §2

… analog, Residue 1 = Y = molecular target: T34, … analog, Residue 1 = Y
T34 peptide: YAEFRHDSGY
Procedure: as §1, §2

… analog, Residue 2 = C = molecular target: T35, … analog, Residue 2 = C
T35 peptide: DCEFRHDSGY
Procedure: as §1, §2

… analog, Residue 2 = D = molecular target: T36, … analog, Residue 2 = D
T36 peptide: DDEFRHDSGY
Procedure: as §1, §2

… analog, Residue 2 = E = molecular target: T37, … analog, Residue 2 = E
T37 peptide: DEEFRHDSGY
Procedure: as §1, §2

… analog, Residue 2 = G = molecular target: T38, … analog, Residue 2 = G
T38 peptide: DGEFRHDSGY
Procedure: as §1, §2

… analog, Residue 2 = H = molecular target: T39, … analog, Residue 2 = H
T39 peptide: DHEFRHDSGY
Procedure: as §1, §2

… analog, Residue 2 = I = molecular target: T40, … analog, Residue 2 = I
T40 peptide: DIEFRHDSGY
Procedure: as §1, §2

… analog, Residue 2 = L = molecular target: T41, … analog, Residue 2 = L
T41 peptide: DLEFRHDSGY
Procedure: as §1, §2

… analog, Residue 2 = M = molecular target: T42, … analog, Residue 2 = M
T42 peptide: DMEFRHDSGY
Procedure: as §1, §2

… analog, Residue 2 = N = molecular target: T43, … analog, Residue 2 = N
T43 peptide: DNEFRHDSGY
Procedure: as §1, §2

… analog, Residue 2 = P = molecular target: T44, … analog, Residue 2 = P
T44 peptide: DPEFRHDSGY
Procedure: as §1, §2

… analog, Residue 2 = Q = molecular target: T45, … analog, Residue 2 = Q
T45 peptide: DQEFRHDSGY
Procedure: as §1, §2

… analog, Residue 2 = R = molecular target: T46, … analog, Residue 2 = R
T46 peptide: DREFRHDSGY
Procedure: as §1, §2

… analog, Residue 2 = S = molecular target: T47, … analog, Residue 2 = S
T47 peptide: DSEFRHDSGY
Procedure: as §1, §2

… analog, Residue 2 = T = molecular target: T48, … analog, Residue 2 = T
T48 peptide: DTEFRHDSGY
Procedure: as §1, §2

… analog, Residue 2 = V = molecular target: T49, … analog, Residue 2 = V
T49 peptide: DVEFRHDSGY
Procedure: as §1, §2

… analog, Residue 2 = W = molecular target: T50, … analog, Residue 2 = W
T50 peptide: DWEFRHDSGY
Procedure: as §1, §2

… analog, Residue 2 = Y = molecular target: T51, … analog, Residue 2 = Y
T51 peptide: DYEFRHDSGY
Procedure: as §1, §2

… analog, Residue 3 = A = molecular target: T52, … analog, Residue 3 = A
T52 peptide: DAAFRHDSGY
Procedure: as §1, §2

… analog, Residue 3 = C = molecular target: T53, … analog, Residue 3 = C
T53 peptide: DACFRHDSGY
Procedure: as §1, §2

… analog, Residue 3 = D = molecular target: T54, … analog, Residue 3 = D
T54 peptide: DADFRHDSGY
Procedure: as §1, §2

… analog, Residue 3 = F = molecular target: T55, … analog, Residue 3 = F
T55 peptide: DAFFRHDSGY
Procedure: as §1, §2

… analog, Residue 3 = G = molecular target: T56, … analog, Residue 3 = G
T56 peptide: DAGFRHDSGY
Procedure: as §1, §2

… analog, Residue 3 = H = molecular target: T57, … analog, Residue 3 = H
T57 peptide: DAHFRHDSGY
Procedure: as §1, §2

… analog, Residue 3 = I = molecular target: T58, … analog, Residue 3 = I
T58 peptide: DAIFRHDSGY
Procedure: as §1, §2

… analog, Residue 3 = L = molecular target: T59, … analog, Residue 3 = L
T59 peptide: DALFRHDSGY
Procedure: as §1, §2

… analog, Residue 3 = M = molecular target: T60, … analog, Residue 3 = M
T60 peptide: DAMFRHDSGY
Procedure: as §1, §2

… analog, Residue 3 = N = molecular target: T61, … analog, Residue 3 = N
T61 peptide: DANFRHDSGY
Procedure: as §1, §2

… analog, Residue 3 = P = molecular target: T62, … analog, Residue 3 = P
T62 peptide: DAPFRHDSGY
Procedure: as §1, §2

… analog, Residue 3 = Q = molecular target: T63, … analog, Residue 3 = Q
T63 peptide: DAQFRHDSGY
Procedure: as §1, §2

… analog, Residue 3 = R = molecular target: T64, … analog, Residue 3 = R
T64 peptide: DARFRHDSGY
Procedure: as §1, §2

… analog, Residue 3 = S = molecular target: T65, … analog, Residue 3 = S
T65 peptide: DASFRHDSGY
Procedure: as §1, §2

… analog, Residue 3 = T = molecular target: T66, … analog, Residue 3 = T
T66 peptide: DATFRHDSGY
Procedure: as §1, §2

… analog, Residue 3 = V = molecular target: T67, … analog, Residue 3 = V
T67 peptide: DAVFRHDSGY
Procedure: as §1, §2

… analog, Residue 3 = W = molecular target: T68, … analog, Residue 3 = W
T68 peptide: DAWFRHDSGY
Procedure: as §1, §2

… analog, Residue 3 = Y = molecular target: T69, … analog, Residue 3 = Y
T69 peptide: DAYFRHDSGY
Procedure: as §1, §2
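Note: antibody binding measured against single-substituted peptide analogs, each epitope position replaced by every one of 19 non-native amino acids, compared with binding to the native Aβ peptide.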

OD (… analog, Residue 5 = G): 0.485 OD | OD (… analog, Residue 7 = E): 0.565 OD | OD (… analog, Residue 8 = C): 0.583 OD | OD (… analog, Residue 8 = D): 0.586 OD | OD (… analog, Residue 8 = E): 0.601 OD | OD (… analog, Residue 8 = F): 0.586 OD | OD (… analog, Residue 8 = G): 0.569 OD | OD (… analog, Residue 8 = H): 0.559 OD | OD (… analog, Residue 8 = I): 0.568 OD | OD (… analog, Residue 8 = L): 0.57 OD | OD (… analog, Residue 8 = M): 0.571 OD | OD (… analog, Residue 8 = P): 0.574 OD | OD (… analog, Residue 8 = Q): 0.59 OD | OD (… analog, Residue 8 = R): 0.589 OD | OD (… analog, Residue 8 = T): 0.586 OD | OD (… analog, Residue 8 = V): 0.578 OD | OD (… analog, Residue 8 = W): 0.567 OD | OD (… analog, Residue 8 = Y): 0.574 OD | OD (… analog, Residue 1 = A): 0.464 OD | OD (… analog, Residue 1 = C): 0.45 OD | OD (… analog, Residue 1 = E): 0.576 OD | OD (… analog, Residue 1 = F): 0.034 OD | OD (… analog, Residue 1 = G): 0.569 OD | OD (… analog, Residue 1 = I): 0.048 OD | OD (… analog, Residue 1 = K): 0.033 OD | OD (… analog, Residue 1 = L): 0.073 OD | OD (… analog, Residue 1 = M): 0.039 OD | OD (… analog, Residue 1 = N): 0.587 OD | OD (… analog, Residue 1 = P): 0.069 OD | OD (… analog, Residue 1 = Q): 0.441 OD | OD (… analog, Residue 1 = S): 0.569 OD | OD (… analog, Residue 1 = T): 0.45 OD | OD (… analog, Residue 1 = W): 0.031 OD | OD (… analog, Residue 1 = Y): 0.341 OD | OD (… analog, Residue 2 = C): 0.553 OD | OD (… analog, Residue 2 = D): 0.119 OD | OD (… analog, Residue 2 = E): 0.563 OD | OD (… analog, Residue 2 = G): 0.527 OD | OD (… analog, Residue 2 = H): 0.534 OD | OD (… analog, Residue 2 = I): 0.522 OD | OD (… analog, Residue 2 = L): 0.482 OD | OD (… analog, Residue 2 = M): 0.535 OD | OD (… analog, Residue 2 = N): 0.525 OD | OD (… analog, Residue 2 = P): 0.445 OD | OD (… analog, Residue 2 = Q): 0.567 OD | OD (… analog, Residue 2 = R): 0.562 OD | OD (… analog, Residue 2 = S): 0.587 OD | OD (… analog, Residue 2 = T): 0.552 OD | OD (… analog, Residue 2 = V): 0.55 OD | OD (… analog, Residue 2 = W): 0.553 OD | OD (… analog, Residue 2 = Y): 0.547 OD | OD (… analog, Residue 3 = A): 0.038 OD | OD (… analog, Residue 3 = C): 0.222 OD | OD (… analog, Residue 3 = D): 0.019 OD | OD (… analog, Residue 3 = F): 0.034 OD | OD (… analog, Residue 3 = G): 0.016 OD | OD (… analog, Residue 3 = H): 0.016 OD | OD (… analog, Residue 3 = I): 0.019 OD | OD (… analog, Residue 3 = L): 0.019 OD | OD (… analog, Residue 3 = M): 0.019 OD | OD (… analog, Residue 3 = N): 0.024 OD | OD (… analog, Residue 3 = P): 0.017 OD | OD (… analog, Residue 3 = Q): 0.153 OD | OD (… analog, Residue 3 = R): 0.015 OD | OD (… analog, Residue 3 = S): 0.016 OD | OD (… analog, Residue 3 = T): 0.015 OD | OD (… analog, Residue 3 = V): 0.016 OD | OD (… analog, Residue 3 = W): 0.149 OD | OD (… analog, Residue 3 = Y): 0.016 OD
B1: murine monoclonal antibody 3D6 (antibody, mouse IgG2b, V domains shown)
VH: EVKLVESGGGLVKPGASLKLSCAASGFTFSNYGMSWVRQNSDKRLEWVASIRSGGGRTYYSDNVKGRFTISRENAKNTLYLQMSSLKSEDTALYYCVRYDHYSGSSDYWGQGTTVTVSS
VL: not shown
notes: also called mAb 3D6; m3D6

Reference: patent publication US20040087777A1 (NEURALAB, published 2004)
